Measured values reported in US20210032339A1 (AMPHIVENA THERAPEUTICS, published 2021).
Several values for one entry are separate records, joined by “and”; a condition that tells them apart may be missing. Equal values may be shown once.

Experiments:
[1] = molecular target: T1, human CD33 (human, UniProt P20138 18-259); assay: flow cytometry, HL-60 cells
T1 construct: also called huCD33; hu CD33
Method: (§1) Cells were incubated with 100 μL of serial dilutions of CD33/CD3 tandem diabodies. After washing three times with FACS buffer the cells were incubated with 0.1 mL of 10 μg/mL mouse monoclonal anti-His antibody in the same buffer for 45 min on ice. After a second washing cycle, the cells were incubated with 0.1 mL of 15 μg/mL FITC-conjugated goat anti-mouse IgG antibodies under the same conditions as before. As a control, cells were incubated with the anti-His IgG followed by the FITC-conjugated goat anti-mouse IgG antibodies without anti-CD33 tandem diabodies. […] The fluorescence of 1×10⁴ living cells was measured using a Beckman-Coulter FC500 MPL flow cytometer using the MXP software (Beckman-Coulter, Krefeld, Germany) or a Millipore Guava EasyCyte flow cytometer using the Incyte software (Merck Millipore, Schwalbach, Germany). Mean fluorescence intensities of the cell samples were calculated using CXP software (Beckman-Coulter, Krefeld, Germany) or Incyte software (Merck Millipore, Schwalbach, Germany). After subtracting the fluorescence intensity values of the cells stained with the secondary and tertiary reagents alone the values were used for calculation of the KD values with the equation for one-site binding (hyperbola) of the GraphPad Prism (version 6.00 for Windows, GraphPad Software, La Jolla Calif. USA). […]

[2] = molecular target: T1, human CD33; assay: flow cytometry, U-937 cells
Method: as §1

[3] = molecular target: T1, human CD33; assay: flow cytometry, HL-60 cells; remark: listed apart in the source
[4] = molecular target: T1, human CD33; assay: flow cytometry, KG-1 cells
Method: as §1

[5] = molecular target: T2, human CD3 (human, UniProt P07766 23-207); assay: flow cytometry, T cells
T2 construct: whole, on cells; Multi-chain complex on cells; also called hu CD3
T2 sequence (P07766 23-207): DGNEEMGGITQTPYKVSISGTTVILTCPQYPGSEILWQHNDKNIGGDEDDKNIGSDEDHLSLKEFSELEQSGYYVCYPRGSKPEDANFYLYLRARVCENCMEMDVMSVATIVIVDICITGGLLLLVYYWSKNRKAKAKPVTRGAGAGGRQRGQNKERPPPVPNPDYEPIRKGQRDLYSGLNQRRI

[6] = molecular target: T1, human CD33; assay: cell-based or functional assay
[7] = molecular target: T2, human CD3; assay: flow cytometry, human T-cells
[8] = molecular target: T1, human CD33; assay: cell-based or functional assay; remark: listed apart in the source
[9] = molecular target: T1, human CD33; assay: cell-based or functional assay; remark: listed apart in the source
[10] = molecular target: T1, human CD33; assay: cell-based or functional assay; remark: listed apart in the source
[11] = molecular target: T1, human CD33; assay: cell-based or functional assay; remark: listed apart in the source

T1 sequence (P20138 18-259): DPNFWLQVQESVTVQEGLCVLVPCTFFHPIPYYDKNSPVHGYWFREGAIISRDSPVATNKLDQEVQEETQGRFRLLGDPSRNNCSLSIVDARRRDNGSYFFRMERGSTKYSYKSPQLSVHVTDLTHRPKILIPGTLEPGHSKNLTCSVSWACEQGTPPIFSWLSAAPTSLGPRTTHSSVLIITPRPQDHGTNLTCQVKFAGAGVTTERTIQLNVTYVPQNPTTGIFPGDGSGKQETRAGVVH

B1: CD33/CD3 tandem diabody 22 (bispecific antibody)
chain: DIQMTQSPSSLSASVGDRVTITCRSSTGAVTTSNYANWVQQKPGKAPKALIGGTNKRAPGVPSRFSGSLIGDKATLTISSLQPEDFATYYCALWYSNLWVFGQGTKVEIKGGSGGSQVQLVQSGAEVKKPGSSVKVSCKASGGTFSSYGISWVRQAPGQGLEWMGGIIPIFGSAHYAQKFQGRVTITADESTSTAYMELSSLRSEDTAVYYCAREYYYDSSEWAFDIWGQGTLVTVSSGGSGQSVLTQPPSASGTPGQRVTISCSGSSSNIGSNTVKWYQQLPGTAPKLLIYSNNQRSSGVPDRFSGSKSGTSASLAISGLQSEDEADYYCAAWDDSLNGYVFGGGTKLTVLGGSGGSEVQLVESGGGLVQPGGSLRLSCAASGFTFSTYAMNWVRQAPGKGLEWVGRIRSKYNNYATYYADSVKDRFTISRDDSKNSLYLQMNSLKTEDTAVYYCARHGNFGNSYVSYFAYWGQGTLVTVSSAAAGSHHHHHH
notes: Non-covalent homodimer; also called TandAb 22
[1]
  Kd: 700 pM
[2]
  Kd: 8600 pM
[3]
  Kd: 700 pM
[4]
  Kd: 2000 pM
[5]
  Kd: 4100 pM
[6]
  EC50 on HL-60 (cytotoxicity): 3.2 pM
[7]
  Kd: 4100 pM

B2: CD33/CD3 tandem diabody 23 (bispecific antibody)
chain: DIQMTQSPSSLSASVGDRVTITCRSSTGAVTTSNYANWVQQKPGKAPKGLIGGTNKRAPGVPSRFSGSLIGTDFTLTISSLQPEDFATYYCALWYSNLWVFGQGTKVEIKGGSGGSQVQLVQSGAEVKKPGSSVKVSCKASGGTFSSYGISWVRQAPGQGLEWMGGIIPIFGSAHYAQKFQGRVTITADESTSTAYMELSSLRSEDTAVYYCAREYYYDSSEWAFDIWGQGTLVTVSSGGSGQSVLTQPPSASGTPGQRVTISCSGSSSNIGSNTVKWYQQLPGTAPKLLIYSNNQRSSGVPDRFSGSKSGTSASLAISGLQSEDEADYYCAAWDDSLNGYVFGGGTKLTVLGGSGGSEVQLVESGGGLVQPGGSLRLSCAASGFTFSTYAMNWVRQAPGKGLEWVGRIRSKYNNYATYYADSVKDRFTISRDDSKNSLYLQMNSLKTEDTAVYYCARHGNFGNSYVSWFAYWGQGTLVTVSSAAAGSHHHHHH
notes: Non-covalent homodimer; also called TandAb 23
[1]
  Kd: 400 pM
[2]
  Kd: 5100 pM
[3]
  Kd: 400 pM
[4]
  Kd: 1000 pM
[5]
  Kd: 97200 pM
[6]
  EC50 on HL-60 (cytotoxicity): 2.8 pM
[7]
  Kd: 97200 pM

B3: CD33/CD3 tandem diabody 19 (bispecific antibody)
chain: DIQMTQSPSSLSASVGDRVTITCRSSTGAVTTSNYANWVQQKPGKAPKALIGGTNKRAPGVPSRFSGSLIGDKATLTISSLQPEDFATYYCALWYSNLWVFGQGTKVEIKGGSGGSQVQLVQSGAEVKKPGASVKVSCKASGYTFTSYYMHWVRQAPGQGLEWMGIINPSGGSTSYAQKFQGRVTMTRDTSTSTVYMELSSLRSEDTAVYYCARDVVPAAIDYYGMDVWGQGTTVTVSSGGSGQSVLTQPPSASGTPGQRVTISCSGSSSNIGSNTVNWYQQLPGTAPKLLIYSDNQRPSGVPDRFSGSKSGSSASLAISGLQSDDEADYYCATWDDSLNGAVFGGGTKLTVLGGSGGSEVQLVESGGGLVQPGGSLRLSCAASGFTFSTYAMNWVRQAPGKGLEWVGRIRSKYNNYATYYADSVKDRFTISRDDSKNSLYLQMNSLKTEDTAVYYCARHGNFGNSYVSYFAYWGQGTLVTVSSAAAGSHHHHHH
[8]
  lysis of KG-1 cells, IC50: ~5 pM

B4: CD33/CD3 tandem diabody 12 (bispecific antibody)
chain: DIQMTQSPSSLSASVGDRVTITCRSSTGAVTTSNYANWVQQKPGKAPKALIGGTNKRAPGVPSRFSGSLIGDKATLTISSLQPEDFATYYCALWYSNLWVFGQGTKVEIKGGSGGSQVQLVQSGAEVKKPGASVKVSCKASGYTFTSYDINWVRQAPGQGLEWMGWMNPNSGNTGFAQKFQGRVTMTRDTSTSTVYMELSSLRSEDTAVYYCARDRAVTDYYYGMDVWGQGTLVTVSSGGSGQSVLTQPPSASGTPGQRVTISCSGSRSNIGSNTVNWYQQLPGTAPKLLIYGNNQRPSGVPDRFSGSKSGTSASLAISGLQSEDEADYYCATWDDSLIGWVFGGGTKLTVLGGSGGSEVQLVESGGGLVQPGGSLRLSCAASGFTFSTYAMNWVRQAPGKGLEWVGRIRSKYNNYATYYADSVKDRFTISRDDSKNSLYLQMNSLKTEDTAVYYCARHGNFGNSYVSYFAYWGQGTLVTVSSAAAGSHHHHHH
[9]
  EC50 mean, cytotoxicity on BV-173: 1.4 pM
  EC50 mean, cytotoxicity on CHO-CD33: 11.8 pM
  EC50 mean, cytotoxicity on HL-60: 1.4 pM
  EC50 mean, cytotoxicity on K562: 4.5 pM
  EC50 mean, cytotoxicity on KASUMI-1: 1.3 pM
  EC50 mean, cytotoxicity on KG-1: 1 pM
  EC50 mean, cytotoxicity on RPMI-8226: 14 pM
  EC50 mean, cytotoxicity on THP-1: 1.9 pM
  EC50 mean, cytotoxicity on U-937: 0.9 pM
[8]
  lysis of KG-1 cells, IC50: ~0.01 pM

B5: CD33/CD3 tandem diabody 14 (bispecific antibody)
chain: DIQMTQSPSSLSASVGDRVTITCRSSTGAVTTSNYANWVQQKPGKAPKALIGGTNKRAPGVPSRFSGSLIGDKATLTISSLQPEDFATYYCALWYSNLWVFGQGTKVEIKGGSGGSQVQLVQSGAEVKKPGASVKVSCKASGYTFTSYDINWVRQAPGQGLEWMGWMNPNSGNTGFAQKFQGRVTMTRDTSTSTVYMELSSLRSEDTAVYYCARDRANTDFSYGMDVWGQGTLVTVSSGGSGQSVLTQPPSASGTPGQRVTISCSGSRSNIGSNTVNWYQQLPGTAPKLLIYGNNQRPSGVPDRFSGSKSGSSASLAISGLQSEDEADYYCATWDDSLIGWVFGGGTKLTVLGGSGGSEVQLVESGGGLVQPGGSLRLSCAASGFTFSTYAMNWVRQAPGKGLEWVGRIRSKYNNYATYYADSVKDRFTISRDDSKNSLYLQMNSLKTEDTAVYYCARHGNFGNSYVSYFAYWGQGTLVTVSSAAAGSHHHHHH
[10]
  EC50, cytotoxicity on HL-60: 1.6 pM and 168 pg/mL
  EC50, cytotoxicity on KG-1: 2.6 pM and 273 pg/mL
  EC50, cytotoxicity on U-937: 3.6 pM and 378 pg/mL
  EC50, cytotoxicity, mean of HL-60, U-937, KG-1: 2.6 pM and 273 pg/mL
[6]
  EC50 on HL-60 (cytotoxicity): 1.6 pM

B6: CD33/CD3 tandem diabody 16 (bispecific antibody)
chain: DIQMTQSPSSLSASVGDRVTITCRSSTGAVTTSNYANWVQQKPGKAPKALIGGTNKRAPGVPSRFSGSLIGDKATLTISSLQPEDFATYYCALWYSNLWVFGQGTKVEIKGGSGGSQVQLVQSGAEVKKPGASVKVSCKASGYTFTSYDINWVRQAPGQGLEWMGWMNPNSGNTGFAQKFQGRVTMTRDTSTSTVYMELSSLRSEDTAVYYCARDRANTDYSLGMDVWGQGTLVTVSSGGSGQSVLTQPPSASGTPGQRVTISCSGSRSNIGSNTVNWYQQLPGTAPKLLIYGNNQRPSGVPDRFSGSKSGTSASLAISGLQSEDEADYYCATWDDSLIGWVFGGGTKLTVLGGSGGSEVQLVESGGGLVQPGGSLRLSCAASGFTFSTYAMNWVRQAPGKGLEWVGRIRSKYNNYATYYADSVKDRFTISRDDSKNSLYLQMNSLKTEDTAVYYCARHGNFGNSYVSYFAYWGQGTLVTVSSAAAGSHHHHHH
[11]
  EC50, calcein-release cytotoxicity on HL-60, 30 min: 4.8 pM
  EC50, calcein-release cytotoxicity on HL-60, 60 min: 2.5 pM
  EC50, calcein-release cytotoxicity on HL-60, 120 min: 1.6 pM
  EC50, calcein-release cytotoxicity on HL-60, 180 min: 1.6 pM
  EC50, calcein-release cytotoxicity on HL-60, 240 min: 1.5 pM
  EC50, calcein-release cytotoxicity on HL-60, 300 min: 1.6 pM
[9]
  EC50 mean, cytotoxicity on BV-173: 3.2 pM
  EC50 mean, cytotoxicity on CHO-CD33: 24 pM
  EC50 mean, cytotoxicity on HL-60: 1.6 pM
  EC50 mean, cytotoxicity on K562: 4.8 pM
  EC50 mean, cytotoxicity on KASUMI-1: 2.4 pM
  EC50 mean, cytotoxicity on KG-1: 1.9 pM
  EC50 mean, cytotoxicity on RPMI-8226: 2.8 pM
  EC50 mean, cytotoxicity on THP-1: 6 pM
  EC50 mean, cytotoxicity on U-937: 1.3 pM
[8]
  lysis of KG-1 cells, IC50: ~0.5 pM and 5 pM
